Measured values as given in patent US20050136053A1 (DYAX, published 2005).
Changes are numbered by the printed parent chain.

B1: anti-Tie1 antibody G2, IgG (antibody, V domains shown)
VH: EVQLLESGGGLVQPGGSLRLSCAASGFTFSSYKMGWVRQAPGRGLEWVSSIYPSGGWTHYADSVKGRFTISRDNSKNTLYLQMNSLRAEDTAVYYCARVLLHYFDYWGQGTLVTVSS
VL: QSVLTQPASVSGSPGQSITISCTGTSSDVGGYKYVSWYQQHPGKAPKLIISDVNNRPSGVSDRFSGSKSGNTASLTISGLQAEDDGDYYCSSYASSSYTSSTTWVFGG
notes: VL entry is lambda and stops within FR4
B2: anti-Tie1 antibody s-B2, IgG (antibody, V domains shown)
VH: EVQLLESGGGLVQPGGSLRLSCAASGFTFSIYGMAWVRQAPGKGLEWVSVISPSGGQTFYADSVKGRFTISRDNSKNTLYLQMNSLRAEDTAVYYCARVYYYGMDVWGQGTTVTVSS
VL: DIQMTQSPATLSLSPGERATLSCRASQSVSSYLAWYQQKPGQAPRLLIYDASNRATGIPARFSGSGSETDFTLTISSLEPEDFAVYYCQQRSKWPRTFGQGTKLEIK
notes: VH entry is a raw phagemid read that runs into CH1
B3: anti-Tie1 antibody s-D11, IgG (antibody, V domains shown)
VH: EVQLLESGGGLVQPGGSLRLSCAASGFTFSGYAMWWVRQAPGKGLEWVSSISPSGGATAYADSVKGRFTISRDNSKNTLYLQMNSLRAEDTAVYYCARDAGSYYWGWFDPWGQGTLVTVSS
VL: B2 VL with V29I, A43P, N53S, A55V, S67F, E68G, Q89L, K93S
notes: VH entry is a raw phagemid read that runs into CH1; also called Di1

Columns and labels:
[1] = biological target: T1, endogenous human Tie1 (primary human endothelial cells, HUVEC, human tissue sections, SW480 cells) (human, UniProt P35590 25-1138); assay: immunofluorescence, HDMEC
T1 construct: also called endogenous Tie1; HDMEC

[2] = biological target: T2, V5-tagged full length human Tie1 expressed in COS1 cells (pcDNA3-Tie1-V5) (human, UniProt P35590 25-1138); assay: Western blot, Tie1-V5-transfected COS1 cells
T2 construct: Cell lysates in Western blot and immunoprecipitation, fixed cells in immunofluorescence; also called Tie1-transfected; transfected Tie1
Procedure: (§1) COS1 cells were transfected with pcDNA3-Tie1-V5 (1 μg DNA per 10 cm cell culture plate) using FUGENE 6 (Roche) according to manufacturer's instruction and incubated for 48 h before stimulation. For immunoprecipitation, Tie1 transfected cells and HMVEC cells were lysed in DOC-RIPA lysis buffer (50 mM Tris-HCl pH 8.0, 150 mM NaCl, 1% Triton-X-100, 0.1% SDS, 1% DOC, 10 mM EDTA) supplemented with aprotinin, leupeptin, PMSF and sodium vanadate. Immunoprecipitation was carried out from equal amount of cell lysates by incubating with polyclonal anti-human Tie1 antibodies (R&D), monoclonal anti-V5 antibodies (Invitrogen) or altogether 23 anti-Tie1 antibodies (1 μg/ml) for 1 to 2 h followed by incubation with protein G-Sepharose (Amersham Pharmacia Biotech AB) for 1 h. The immunoprecipitates were washed twice with PBS-T and twice with PBS, followed by elution with the Laemmli buffer and separation in 8% SDS-PAGE. The blots were probed with the 23 anti-Tie1 antibodies (5 μg/ml) and subsequently anti-human Fc antibodies conjugated with HRP.
(§2) Next, to find out if the anti-Tie1 antibodies recognize Tie1 in living cells, those cells were studied by immunofluorescence staining.

[3] = biological target: T1, endogenous human Tie1 (primary human …); assay: Western blot, HDMEC; Western blot, HDMEC
Procedure: as §1, §2

T2 sequence (P35590 25-1138): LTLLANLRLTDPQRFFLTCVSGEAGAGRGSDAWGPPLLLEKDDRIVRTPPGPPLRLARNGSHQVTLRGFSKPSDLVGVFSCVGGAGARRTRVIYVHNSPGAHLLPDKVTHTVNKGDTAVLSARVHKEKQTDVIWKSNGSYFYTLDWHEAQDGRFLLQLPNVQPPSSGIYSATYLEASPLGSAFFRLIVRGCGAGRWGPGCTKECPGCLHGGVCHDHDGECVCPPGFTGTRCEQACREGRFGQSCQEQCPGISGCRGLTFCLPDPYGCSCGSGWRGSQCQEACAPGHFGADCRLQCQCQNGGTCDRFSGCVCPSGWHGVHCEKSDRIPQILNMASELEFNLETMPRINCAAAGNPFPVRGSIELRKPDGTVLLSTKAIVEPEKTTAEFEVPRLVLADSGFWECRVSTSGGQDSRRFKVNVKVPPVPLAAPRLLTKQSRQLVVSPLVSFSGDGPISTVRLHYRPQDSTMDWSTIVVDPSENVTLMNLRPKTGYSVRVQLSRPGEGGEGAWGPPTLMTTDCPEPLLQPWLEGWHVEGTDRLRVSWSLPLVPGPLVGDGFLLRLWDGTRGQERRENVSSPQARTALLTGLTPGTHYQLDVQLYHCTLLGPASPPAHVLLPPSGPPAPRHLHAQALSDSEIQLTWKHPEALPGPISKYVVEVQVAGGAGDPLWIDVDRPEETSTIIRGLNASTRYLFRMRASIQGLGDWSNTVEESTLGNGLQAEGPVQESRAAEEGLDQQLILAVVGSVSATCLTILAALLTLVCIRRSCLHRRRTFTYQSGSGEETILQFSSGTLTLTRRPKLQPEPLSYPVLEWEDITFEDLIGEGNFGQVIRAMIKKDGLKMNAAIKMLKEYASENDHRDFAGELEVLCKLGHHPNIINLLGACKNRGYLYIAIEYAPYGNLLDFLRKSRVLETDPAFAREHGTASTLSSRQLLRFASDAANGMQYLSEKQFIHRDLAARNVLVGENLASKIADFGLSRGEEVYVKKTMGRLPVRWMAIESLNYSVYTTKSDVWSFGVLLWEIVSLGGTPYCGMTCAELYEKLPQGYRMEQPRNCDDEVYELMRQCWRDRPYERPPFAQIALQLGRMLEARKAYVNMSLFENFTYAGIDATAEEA
T1 sequence (P35590 25-1138): as above

Binder	binding result [1]	binding result [2]	binding result [3]
B1	binds	binds	–
B2	–	binds	binds
B3	–	binds	binds
